Source: patent publication US20140348785A1 (US Dept. of Health and Human Services, published 2014)

Experiments:
[1] = target: T1, Jo1 antigen (UniProt P12081 2-509); assay: Luminex AtheNA Multi-Lyte ANA bead assay
T1 construct: Commercial bead antigen
T1 sequence: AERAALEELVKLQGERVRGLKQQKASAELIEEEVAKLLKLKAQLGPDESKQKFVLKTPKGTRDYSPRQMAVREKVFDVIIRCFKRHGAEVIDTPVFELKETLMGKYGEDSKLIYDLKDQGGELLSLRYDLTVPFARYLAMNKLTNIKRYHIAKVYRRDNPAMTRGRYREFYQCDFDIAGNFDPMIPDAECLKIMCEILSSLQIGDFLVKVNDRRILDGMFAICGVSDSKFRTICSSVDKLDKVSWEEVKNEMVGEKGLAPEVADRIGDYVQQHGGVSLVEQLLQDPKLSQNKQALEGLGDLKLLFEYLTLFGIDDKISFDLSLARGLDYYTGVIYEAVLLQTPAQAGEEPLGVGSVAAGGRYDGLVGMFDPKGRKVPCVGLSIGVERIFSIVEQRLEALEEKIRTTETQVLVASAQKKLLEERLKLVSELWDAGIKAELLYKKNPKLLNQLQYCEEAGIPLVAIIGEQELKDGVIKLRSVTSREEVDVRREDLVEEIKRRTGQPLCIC

[2] = target: T2, scleroderma 70 antigen (UniProt P11387 2-765); assay: Luminex AtheNA Multi-Lyte ANA bead assay
T2 construct: Commercial bead antigen; also called Scl 70; Sc1 70
T2 sequence: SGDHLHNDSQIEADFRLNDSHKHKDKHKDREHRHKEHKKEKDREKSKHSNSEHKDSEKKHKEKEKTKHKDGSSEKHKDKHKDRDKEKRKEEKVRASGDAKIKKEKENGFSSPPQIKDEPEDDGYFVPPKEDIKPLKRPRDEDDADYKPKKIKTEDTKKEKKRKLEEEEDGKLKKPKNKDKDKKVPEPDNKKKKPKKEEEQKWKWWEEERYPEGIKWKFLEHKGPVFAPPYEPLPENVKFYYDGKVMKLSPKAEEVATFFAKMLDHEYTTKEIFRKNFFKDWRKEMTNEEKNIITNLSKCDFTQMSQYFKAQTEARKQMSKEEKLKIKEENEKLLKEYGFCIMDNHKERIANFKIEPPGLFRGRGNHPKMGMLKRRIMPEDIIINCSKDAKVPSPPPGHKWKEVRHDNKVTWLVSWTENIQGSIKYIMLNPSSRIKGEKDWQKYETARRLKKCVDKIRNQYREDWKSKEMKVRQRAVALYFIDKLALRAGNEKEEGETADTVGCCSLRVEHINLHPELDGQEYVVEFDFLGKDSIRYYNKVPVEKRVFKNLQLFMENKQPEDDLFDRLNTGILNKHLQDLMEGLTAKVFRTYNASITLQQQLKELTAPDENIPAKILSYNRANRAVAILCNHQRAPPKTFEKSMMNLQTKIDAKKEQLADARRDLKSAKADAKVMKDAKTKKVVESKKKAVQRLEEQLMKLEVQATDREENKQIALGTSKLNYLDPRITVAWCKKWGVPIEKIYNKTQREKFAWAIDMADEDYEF

[3] = target: T3, Sjogren's syndrome antigen B (UniProt P05455 1-408); assay: Luminex AtheNA Multi-Lyte ANA bead assay
T3 construct: Commercial bead antigen; also called SSB; SS-B/La
T3 sequence: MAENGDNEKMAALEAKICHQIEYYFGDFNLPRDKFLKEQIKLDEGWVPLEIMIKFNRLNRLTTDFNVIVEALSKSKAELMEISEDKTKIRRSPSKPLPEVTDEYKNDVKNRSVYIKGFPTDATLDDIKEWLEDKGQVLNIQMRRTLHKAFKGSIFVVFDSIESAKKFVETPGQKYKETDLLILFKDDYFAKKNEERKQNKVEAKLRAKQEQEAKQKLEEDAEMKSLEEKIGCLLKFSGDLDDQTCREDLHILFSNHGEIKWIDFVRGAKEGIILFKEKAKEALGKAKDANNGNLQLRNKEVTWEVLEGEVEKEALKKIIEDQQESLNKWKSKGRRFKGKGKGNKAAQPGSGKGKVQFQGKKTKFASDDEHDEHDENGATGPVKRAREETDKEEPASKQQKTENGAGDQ

[4] = target: T4, centromere B (UniProt P07199 2-599); assay: Luminex AtheNA Multi-Lyte ANA bead assay
T4 construct: Commercial bead antigen; also called CentrB
T4 sequence: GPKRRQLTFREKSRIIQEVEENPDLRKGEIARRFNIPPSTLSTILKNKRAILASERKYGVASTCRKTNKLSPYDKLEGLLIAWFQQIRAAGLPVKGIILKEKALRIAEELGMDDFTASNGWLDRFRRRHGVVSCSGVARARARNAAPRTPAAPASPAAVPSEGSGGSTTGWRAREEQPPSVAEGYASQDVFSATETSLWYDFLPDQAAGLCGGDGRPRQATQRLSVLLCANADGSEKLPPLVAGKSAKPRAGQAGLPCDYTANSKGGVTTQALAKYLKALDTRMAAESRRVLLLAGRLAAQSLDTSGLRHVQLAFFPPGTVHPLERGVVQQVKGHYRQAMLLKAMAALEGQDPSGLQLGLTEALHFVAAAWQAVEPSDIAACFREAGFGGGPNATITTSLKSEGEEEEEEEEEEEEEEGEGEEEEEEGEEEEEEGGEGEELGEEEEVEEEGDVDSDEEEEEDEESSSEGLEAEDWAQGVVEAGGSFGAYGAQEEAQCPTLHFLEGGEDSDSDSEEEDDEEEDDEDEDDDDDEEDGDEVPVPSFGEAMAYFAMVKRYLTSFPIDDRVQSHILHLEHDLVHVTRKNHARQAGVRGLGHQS

[5] = target: Z13e1-specific peptide (gp41 residues 666-677) (HIV-1); assay: ELISA, peptide coated at 2 ug/ml
[6] = target: 4E10-specific MPER peptide (gp41 residues 671-683) (HIV-1); assay: ELISA, peptide coated at 2 ug/ml
[7] = target: full MPER peptide (ELISA; gp41 residues 656-683 with lysine triplicates) (HIV-1); assay: ELISA, peptide coated at 2 ug/ml

B1: 10E8 monoclonal antibody (full-length IgG) (antibody, V domains shown)
VH: EVQLVESGGGLVKPGGSLRLSCSASGFDFDNAWMTWVRQPPGKGLEWVGRITGPGEGWSVDYAAPVEGRFTISRLNSINFLYLEMNNLRMEDSGLYFCARTGKYYDFWSGYPPGEEYFQDWGRGTLVTVSS
VL: SYELTQETGVSVALGRTVTITCRGDSLRSHYASWYQKKPGQAPILLFYGKNNRPSGVPDRFSGSASGNRASLTISGAQAEDDAEYYCSSRDKSGSRLSVFGGGTKLTVL
notes: also called mAb 10E8; wild-type 10E8
B1: no binding (tested: 50 ug/ml (highest concentration assayed)) [1]; no binding (tested: 50 ug/ml (highest concentration assayed)) [2]; no binding (tested: 50 ug/ml (highest concentration assayed)) [3]. B1: no binding (tested: 50 ug/ml (highest concentration assayed)) [4]; no binding [5]; binds [6]. B1: binds [7].
